# US20250152742A1, “COMPOSITIONS AND METHODS FOR NEUROLOGICAL DISEASES” (Trames Bio, Inc., priority 2022, published 2025)
# Substitutions are numbered along the chain they refer to. Names may count otherwise.
# B1: CODA1047: engineered receptor: R101F, Y210V in SEQ ID NO: 33 (protein)
# chain: MRCSPGGVWLALAASLLHVSLQGEFQRKLYKELVKNYNPLERPVANDSQPLTVYFSLSLLQIMDVDEKNQVLTTNIWLQMSWTDHYLQWNVSEYPGVKTVFFPDGQIWKPDILLYNSADERFDATFHTNVLVNSSGHCQYLPPGIFKSSCPMDLKNFPMDVQTCKLKFGSWSYGGWSLDLQMQEADISGYIPNGEWDLVGIPGKRSERFVECCKEPYPDVTFTVTMRRRMGYYLIQMYIPSLLIVILSWISFWINMDAAPARVGLGITTVLTMTTQSSGSRASLPKVSYVKAIDIWMAVCLLFVFSALLEYAAVNFVSRQHKELLRFRRKRRHHKSPMLNLFQEDEAGEGRFNFSAYGMGPACLQAKDGISVKGANNSNTTNPPPAPSKSPEEMRKLFIQRAKKIDKISRIGFPMAFLIFNMFYWIIYKIVRREDVHNQ
# modifications: synthetic sequence of chimeric LGIC
# B2: CODA1053: engineered receptor: R101M, L131A in SEQ ID NO: 33 (protein)
# chain: B1 chain with F101M, L131A, V210Y
# modifications: synthetic sequence of chimeric LGIC
# Test system: engineered chimeric receptor SEQ ID NO: 33 and its mutants (human α7-nAChR ligand binding domain / human GlyRα1 ion pore domain) in Lenti-X 293T cells
# Experiment: YFP fluorescence quenching anion reporter plate reader assay (percent quench, EC50)
# Assay type: cell-based
# Conditions: for YFP fluorescence quenching using CNL001 (percent quench): receptor named in row; for YFP fluorescence quenching using Varenicline, 3 nM var: ligand Varenicline 3 nM; for YFP fluorescence quenching using Varenicline, 30 nM var: ligand Varenicline 30 nM; for YFP fluorescence quenching using Varenicline, 300 nM var: ligand Varenicline 300 nM; for YFP fluorescence quenching using Varenicline, 500 nM var: ligand Varenicline 500 nM; for YFP fluorescence quenching using Varenicline, 1 uM var: ligand Varenicline 1 uM
# In short: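 Percent quench compares mean YFP signal over the final 10 s with the 15 s baseline before ligand, added in iodide-containing extracellular solution (pH 7.2). Cells were LX293T carrying a YFP anion reporter, transiently transfected with the channel construct; plates were preincubated 30 min at 37 °C.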
# [1] = 1 nM CNL001, first column so headed
# [2] = 1 nM CNL001, second column so headed
# [3] = 1 nM brd (TC-5619/Bradanicline)
# [4] = 3 nM brd (TC-5619/Bradanicline)
# [5] = 10 nM CNL001, first column so headed
# [6] = 10 nM CNL001, second column so headed
# [7] = 10 nM brd (TC-5619/Bradanicline)
# [8] = 30 nM brd (TC-5619/Bradanicline)
# [9] = 50 nM CNL001, first column so headed
# [10] = 50 nM CNL001, second column so headed
# [11] = 100 nM CNL001, first column so headed
# [12] = 100 nM CNL001, second column so headed
# [13] = 100 nM brd (TC-5619/Bradanicline)
# [14] = 300 nM brd (TC-5619/Bradanicline)
# [15] = 1 uM CNL001, first column so headed
# [16] = 1 uM CNL001, second column so headed
molecule,measurement,setting,value
B1,YFP fluorescence quenching using CNL001 (percent quench),[1],−7.82%
same,YFP fluorescence quenching using CNL001 (percent quench),[2],−8.382%
same,YFP fluorescence quenching using TC-5619/Bradanicline (percent quench),[3],−5.548%
same,YFP fluorescence quenching using TC-5619/Bradanicline (percent quench),[4],−9.432%
same,YFP fluorescence quenching using CNL001 (percent quench),[5],−5.381%
same,YFP fluorescence quenching using CNL001 (percent quench),[6],−1.431%
same,YFP fluorescence quenching using TC-5619/Bradanicline (percent quench),[7],−3.068%
same,YFP fluorescence quenching using TC-6683 (percent quench),30 nM TC-6683,−24.195%
same,YFP fluorescence quenching using TC-5619/Bradanicline (percent quench),[8],2.368%
same,YFP fluorescence quenching using CNL001 (percent quench),[9],−0.999%
same,YFP fluorescence quenching using CNL001 (percent quench),[10],3.909%
same,YFP fluorescence quenching using ABT-126 (percent quench),50 nM abt (ABT-126),−14.1%
same,YFP fluorescence quenching using CNL001 (percent quench),[11],−0.823%
same,YFP fluorescence quenching using CNL001 (percent quench),[12],−5.885%
same,YFP fluorescence quenching using ABT-126 (percent quench),100 nM abt (ABT-126),−11.72%
same,YFP fluorescence quenching using TC-5619/Bradanicline (percent quench),[13],47.529%
same,YFP fluorescence quenching using TC-6683 (percent quench),300 nM TC-6683,−24.234%
same,YFP fluorescence quenching using ABT-126 (percent quench),300 nM abt (ABT-126),−12.98%
same,YFP fluorescence quenching using TC-5619/Bradanicline (percent quench),[14],74.413%
same,YFP fluorescence quenching using CNL001 (percent quench),[15],1.638%
same,YFP fluorescence quenching using CNL001 (percent quench),[16],3.483%
same,YFP fluorescence quenching using ABT-126 (percent quench),1 uM abt (ABT-126),−15.09%
same,YFP fluorescence quenching using TC-6683 (percent quench),3 uM TC-6683,−21.291%
same,YFP fluorescence quenching (percent quench),10 uM ach (acetylcholine),−4.26%
same,YFP fluorescence quenching using TC-6683 (percent quench),30 uM TC-6683,−16.363%
same,YFP fluorescence quenching using TC-6683 (percent quench),100 uM TC-6683,−24.9%
same,YFP fluorescence quenching (percent quench),100 uM ach (acetylcholine),−13.05%
same,YFP fluorescence quenching (percent quench),300 uM ach (acetylcholine),−11.73%
same,YFP fluorescence quenching (percent quench),500 uM ach (acetylcholine),−10.75%
same,YFP fluorescence quenching (percent quench),1 mM ach (acetylcholine),−8.81%
same,YFP fluorescence quenching (percent quench),3 mM ach (acetylcholine),−6.77%
same,YFP fluorescence quenching (percent quench),10 mM ach (acetylcholine),−1.03%
same,"YFP fluorescence quenching using Varenicline, 3 nM var",first column,−3.035
same,"YFP fluorescence quenching using Varenicline, 3 nM var",second column,−0.786
same,"YFP fluorescence quenching using Varenicline, 30 nM var",first column,−5.181
same,"YFP fluorescence quenching using Varenicline, 30 nM var",second column,0.669
same,"YFP fluorescence quenching using Varenicline, 300 nM var",first column,−2.748
same,"YFP fluorescence quenching using Varenicline, 300 nM var",second column,−6.708
same,"YFP fluorescence quenching using Varenicline, 500 nM var",first column,−9.123
same,"YFP fluorescence quenching using Varenicline, 500 nM var",second column,−9.869
same,"YFP fluorescence quenching using Varenicline, 1 uM var",first column,−6.702
same,"YFP fluorescence quenching using Varenicline, 1 uM var",second column,−7.26
B2,YFP fluorescence quenching using CNL001 (percent quench),[1],−8.554%
same,YFP fluorescence quenching using CNL001 (percent quench),[2],−13.711%
same,YFP fluorescence quenching using TC-5619/Bradanicline (percent quench),[3],0.008%
same,YFP fluorescence quenching using TC-5619/Bradanicline (percent quench),[4],43.21%
same,YFP fluorescence quenching using CNL001 (percent quench),[5],39.631%
same,YFP fluorescence quenching using CNL001 (percent quench),[6],66.809%
same,YFP fluorescence quenching using TC-5619/Bradanicline (percent quench),[7],77.672%
same,YFP fluorescence quenching using TC-5619/Bradanicline (percent quench),[8],76.277%
same,YFP fluorescence quenching using CNL001 (percent quench),[9],82.122%
same,YFP fluorescence quenching using CNL001 (percent quench),[10],82.031%
same,YFP fluorescence quenching using ABT-126 (percent quench),50 nM abt (ABT-126),−27.01%
same,YFP fluorescence quenching using CNL001 (percent quench),[11],83.312%
same,YFP fluorescence quenching using CNL001 (percent quench),[12],83.986%
same,YFP fluorescence quenching using ABT-126 (percent quench),100 nM abt (ABT-126),−18.76%
same,YFP fluorescence quenching using TC-5619/Bradanicline (percent quench),[13],76.856%
same,YFP fluorescence quenching using ABT-126 (percent quench),300 nM abt (ABT-126),−17.8%
same,YFP fluorescence quenching using TC-5619/Bradanicline (percent quench),[14],75.32%
same,YFP fluorescence quenching using CNL001 (percent quench),[15],84.363%
same,YFP fluorescence quenching using CNL001 (percent quench),[16],83.877%
same,YFP fluorescence quenching using ABT-126 (percent quench),1 uM abt (ABT-126),−6.55%
same,YFP fluorescence quenching (percent quench),10 uM ach (acetylcholine),−3.98%
same,YFP fluorescence quenching (percent quench),100 uM ach (acetylcholine),−11%
same,YFP fluorescence quenching (percent quench),300 uM ach (acetylcholine),−7.92%
same,YFP fluorescence quenching (percent quench),500 uM ach (acetylcholine),7.36%
same,YFP fluorescence quenching (percent quench),1 mM ach (acetylcholine),57.28%
same,YFP fluorescence quenching (percent quench),3 mM ach (acetylcholine),60.54%
same,YFP fluorescence quenching (percent quench),10 mM ach (acetylcholine),79.46%
same,"YFP fluorescence quenching using Varenicline, 3 nM var",first column,74.835
same,"YFP fluorescence quenching using Varenicline, 3 nM var",second column,76.119
same,"YFP fluorescence quenching using Varenicline, 30 nM var",first column,77.608
same,"YFP fluorescence quenching using Varenicline, 30 nM var",second column,79.015
same,"YFP fluorescence quenching using Varenicline, 300 nM var",first column,80.71
same,"YFP fluorescence quenching using Varenicline, 300 nM var",second column,79.002
same,"YFP fluorescence quenching using Varenicline, 500 nM var",first column,78.709
same,"YFP fluorescence quenching using Varenicline, 500 nM var",second column,78.884
same,"YFP fluorescence quenching using Varenicline, 1 uM var",first column,79.688
same,"YFP fluorescence quenching using Varenicline, 1 uM var",second column,80
